Holding throughout (assay): cell_activity; yeast 37 C; 30 C: 0
Common to all, as to settings: tags: NLS, 6xHis

One series concerns the target T1, ZM6.22v2(J2) (artificial).
T1 chain: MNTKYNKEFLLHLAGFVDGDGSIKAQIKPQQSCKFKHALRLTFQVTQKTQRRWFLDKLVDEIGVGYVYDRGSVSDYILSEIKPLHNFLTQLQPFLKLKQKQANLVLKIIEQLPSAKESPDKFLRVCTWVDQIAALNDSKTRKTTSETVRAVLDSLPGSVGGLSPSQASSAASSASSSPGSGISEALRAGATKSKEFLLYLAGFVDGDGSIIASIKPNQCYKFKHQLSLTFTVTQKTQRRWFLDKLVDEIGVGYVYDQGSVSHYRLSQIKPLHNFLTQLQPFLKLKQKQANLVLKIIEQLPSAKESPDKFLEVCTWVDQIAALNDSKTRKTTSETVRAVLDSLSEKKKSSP
Here is the method:
(§1) A 3 mL culture of selective media (MP Biomedical) was inoculated with a single colony of the yeast screening strain and grown at 30° C. overnight. On the following day, a 50 ml YPD culture (MP Biomedical) was started with 2 ml of the overnight culture and grown at 30° C. overnight. On the following day, the cells were harvested by centrifugation at 4000 rpm. The cells were resuspended in 100 ml ice cold water and centrifuged again. The cells were then washed in 1.2 M sorbitol, followed by treatment with 2 ml of 10 mM Tris pH 8.0, 1 mM EDTA, 100 mM Lithium acetate, 10 mM DTT, 0.6M sorbitol for 30 minutes at 30° C. with shaking. The cells were recovered by centrifugation, washed in 40 ml 1.2M sorbitol and finally resuspended in 250 microliters of 1.2M sorbitol. 50 microliter aliquots were transferred to test tubes on ice. Up to 5 microliters of DNA (100-500 nanograms) were added. The suspension was transferred to a 0.2 cm electroporation cuvette, on ice. Electroporation was performed with a pulse charge at 1.5 kV, 200 ohms, 25 microF (pulse time of 5 milliseconds). 1 mL YPD media (MP Biomedical) was added and the cells were allowed to recover at 30° C. for 1-2 hr. The cells were centrifuged, resuspended in 100 uL 1M sorbitol and plated on selective media lacking leucine and containing 2% galactose. The resulting yeast colonies were incubated at various temperatures ranging from 22 to 37 degrees Celsius for 7-10 days. I-CreI and meganucleases derived from it have maximal activity at or above 37 degrees Celsius. Screening was performed at a range of temperatures from 22 to 37 degrees in order to observe increases in activity at lower temperatures which are relevant to certain biological systems (eg. plant cells, plant cell cultures, etc). At that time the red/white sectoring phenotype, indicative of meganuclease activity was observed. Colonies with increased white sectoring over the parental meganuclease (indicating colonies expressing a meganuclease with increased meganuclease activity), also referred to as “hits” and sometimes completely white, were isolated for further analysis.
(§2) A total of 13 ZM6.22v2 variants with increased activity were confirmed in the yeast system (as described in Example 6). Increased activity was observed across a range of temperatures: 28 degrees Celsius, 30 degrees Celsius and 37 degrees Celsius, as shown in Table 16.

The next series concerns the target T2, ZM6.22v2(I9) (artificial).
T2 chain: T1 chain with H12Y, K57E, R124E, V316A, Q318R
The procedure: as §1, §2

The target of a further series is T3, ZM6.22v2(I7) (artificial).
T3 chain: T1 chain with Q50R, K57E, Q318R
The procedure:
as §1, §2

The next series has as its target T4, ZM6.22v2 (artificial).
T4 chain: T1 chain with H12Y, R124E
Here is the method: as §1, §2

The next series concerns the target T5, ZM6.22v2(I4) (artificial).
T5 chain: T1 chain with H12Y, K57E, V292A, V316A, Q318R
The procedure:
as §1, §2

Drawing on patent US20140223606, “COMPOSITIONS AND METHODS COMPRISING SEQUENCES HAVING MEGANUCLEASE ACTIVITY” (PIONEER HI BRED INTERNATIONAL INC, published 2014), this text covers activity for 1 molecule.

Changes are numbered by the printed parent chain.

B1: ZM6.22v2 recognition site (dsDNA)
DNA 1: ATTGCTCTCTCACATACTTTTA
DNA 2: TAAAAGTATGTGAGAGAGCAAT
On to B1, for which the activity amounted to 2 score 0-4 in the series with ZM6.22v2(J2); 2 score 0-4 with ZM6.22v2(I9); 2 score 0-4 with ZM6.22v2(I7); 1 score 0-4 in the series with ZM6.22v2; 3 score 0-4 with ZM6.22v2(I4).
